We go through one substance from patent publication US20210277067A1.

The assay concerns the target HCMV pentameric complex gH/gL/pUL128/pUL130/pUL131A (wild type Pentamer) (HCMV strain Merlin) (UniProt Q6SW67). Kind of assay: method not stated.

In turn, “8I21 with HCDR3 Trp105 mutated to alanine (Fab)” yielded a fold decrease in binding affinity (against unmutated 8I21) above 150 fold.
